Measured values published in US20220127354A1 (Amgen, published 2022).

T1: muCDH19(44-139)::huCDH19(142-249)::muCDH19(248-770) with Flag tag (construct D, Hu EC2) (human/mouse chimera)
T1 construct: leader left out; the entry starts at residue 44; also called C137913
T1 chain: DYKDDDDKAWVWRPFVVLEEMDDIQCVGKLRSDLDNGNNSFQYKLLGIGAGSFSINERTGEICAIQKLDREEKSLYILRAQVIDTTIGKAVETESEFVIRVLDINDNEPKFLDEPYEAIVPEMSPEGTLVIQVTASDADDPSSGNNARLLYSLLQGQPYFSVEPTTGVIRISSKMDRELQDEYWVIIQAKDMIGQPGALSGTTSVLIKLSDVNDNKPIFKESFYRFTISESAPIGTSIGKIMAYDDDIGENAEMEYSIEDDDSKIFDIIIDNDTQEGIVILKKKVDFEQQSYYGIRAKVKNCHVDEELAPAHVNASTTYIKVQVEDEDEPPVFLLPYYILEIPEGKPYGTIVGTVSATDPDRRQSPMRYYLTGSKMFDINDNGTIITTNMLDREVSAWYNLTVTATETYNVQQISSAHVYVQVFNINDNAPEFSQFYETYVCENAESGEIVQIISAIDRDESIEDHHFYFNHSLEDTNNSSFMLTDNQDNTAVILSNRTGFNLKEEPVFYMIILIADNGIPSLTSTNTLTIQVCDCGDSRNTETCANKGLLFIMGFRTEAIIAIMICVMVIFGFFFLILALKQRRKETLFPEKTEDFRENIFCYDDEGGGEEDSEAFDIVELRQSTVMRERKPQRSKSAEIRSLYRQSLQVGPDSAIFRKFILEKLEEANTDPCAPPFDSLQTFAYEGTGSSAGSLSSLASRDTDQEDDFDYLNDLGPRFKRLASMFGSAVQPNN

T2: muCDH19(44-362)::huCDH19(365-772) with Flag tag (construct G, Hu EC4-5) (human/mouse chimera)
T2 construct: leader left out; the entry starts at residue 44; also called C137917
T2 chain: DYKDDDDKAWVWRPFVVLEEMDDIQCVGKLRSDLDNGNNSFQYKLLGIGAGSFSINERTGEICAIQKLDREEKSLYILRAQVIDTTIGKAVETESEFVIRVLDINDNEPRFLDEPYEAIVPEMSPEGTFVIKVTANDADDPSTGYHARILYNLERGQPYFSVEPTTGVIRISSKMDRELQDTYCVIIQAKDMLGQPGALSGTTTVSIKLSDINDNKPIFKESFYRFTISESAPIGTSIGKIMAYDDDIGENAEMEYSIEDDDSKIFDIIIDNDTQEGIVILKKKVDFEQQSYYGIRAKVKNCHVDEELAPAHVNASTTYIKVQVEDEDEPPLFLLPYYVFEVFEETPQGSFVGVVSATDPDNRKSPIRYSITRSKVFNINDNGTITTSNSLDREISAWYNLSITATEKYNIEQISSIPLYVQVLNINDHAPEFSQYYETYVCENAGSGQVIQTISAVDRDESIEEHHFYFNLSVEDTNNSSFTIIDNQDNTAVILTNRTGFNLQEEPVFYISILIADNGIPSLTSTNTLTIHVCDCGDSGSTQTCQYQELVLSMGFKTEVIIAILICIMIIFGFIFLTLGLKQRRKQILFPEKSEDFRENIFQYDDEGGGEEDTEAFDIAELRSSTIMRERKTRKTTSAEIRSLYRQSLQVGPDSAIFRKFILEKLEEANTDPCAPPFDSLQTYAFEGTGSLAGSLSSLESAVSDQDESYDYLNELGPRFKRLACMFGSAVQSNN

T3: muCDH19(44-770) with Flag tag (construct I, Mu EC1-5) (mouse)
T3 construct: leader left out; the entry starts at residue 44; also called Mo EC1-5; mouse Cadherin19
T3 chain: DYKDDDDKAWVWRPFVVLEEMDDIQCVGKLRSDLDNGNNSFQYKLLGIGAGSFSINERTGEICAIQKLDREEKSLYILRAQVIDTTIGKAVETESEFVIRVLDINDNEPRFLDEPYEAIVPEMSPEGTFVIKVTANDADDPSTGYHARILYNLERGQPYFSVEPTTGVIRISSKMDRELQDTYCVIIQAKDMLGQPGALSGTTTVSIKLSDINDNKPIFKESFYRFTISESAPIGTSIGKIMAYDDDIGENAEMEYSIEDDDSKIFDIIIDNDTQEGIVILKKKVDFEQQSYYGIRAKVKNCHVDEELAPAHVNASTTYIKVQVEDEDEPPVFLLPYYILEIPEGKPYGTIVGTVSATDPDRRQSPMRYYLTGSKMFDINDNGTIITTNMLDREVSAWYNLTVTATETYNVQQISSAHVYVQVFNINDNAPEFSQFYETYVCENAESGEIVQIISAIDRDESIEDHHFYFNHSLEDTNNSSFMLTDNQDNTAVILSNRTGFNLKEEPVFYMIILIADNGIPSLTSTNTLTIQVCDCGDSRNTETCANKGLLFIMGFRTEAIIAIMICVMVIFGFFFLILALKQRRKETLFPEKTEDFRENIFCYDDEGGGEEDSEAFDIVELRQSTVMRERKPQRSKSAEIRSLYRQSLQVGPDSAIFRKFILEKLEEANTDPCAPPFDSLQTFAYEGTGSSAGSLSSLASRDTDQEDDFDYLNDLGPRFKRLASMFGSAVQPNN

T4: muCDH19(44-461)::huCDH19(464-772) with Flag tag (construct H, Hu EC5) (human/mouse chimera)
T4 construct: leader left out; the entry starts at residue 44; also called C137915
T4 chain: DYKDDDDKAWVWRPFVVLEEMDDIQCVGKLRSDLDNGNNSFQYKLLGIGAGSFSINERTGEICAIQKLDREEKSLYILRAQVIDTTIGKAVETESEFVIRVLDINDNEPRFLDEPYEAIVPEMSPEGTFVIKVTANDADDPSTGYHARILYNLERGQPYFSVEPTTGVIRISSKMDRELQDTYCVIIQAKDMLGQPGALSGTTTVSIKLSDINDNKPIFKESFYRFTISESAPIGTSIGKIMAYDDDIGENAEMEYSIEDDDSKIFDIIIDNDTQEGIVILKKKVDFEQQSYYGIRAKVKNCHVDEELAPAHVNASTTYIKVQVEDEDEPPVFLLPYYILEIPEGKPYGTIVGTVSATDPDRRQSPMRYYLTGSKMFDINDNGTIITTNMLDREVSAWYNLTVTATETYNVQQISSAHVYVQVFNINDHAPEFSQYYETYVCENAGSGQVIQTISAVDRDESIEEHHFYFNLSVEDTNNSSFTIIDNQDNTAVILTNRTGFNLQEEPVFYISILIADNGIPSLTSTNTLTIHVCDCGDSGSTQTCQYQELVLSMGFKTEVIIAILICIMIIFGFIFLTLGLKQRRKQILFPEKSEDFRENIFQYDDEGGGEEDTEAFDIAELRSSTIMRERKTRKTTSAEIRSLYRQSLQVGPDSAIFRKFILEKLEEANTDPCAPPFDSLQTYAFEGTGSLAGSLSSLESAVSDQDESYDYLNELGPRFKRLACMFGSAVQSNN


What was measured:
Experiment in all cases: flow cytometry, transfected 293T cells
[1] = molecular target: T1, muCDH19(44-139)::huCDH19(142-249)::muCDH …
Text: (§1) The experiment included assaying the anti-CDH19 antibodies against mouse Cadherin19 to determine suitability for binning on these human/mouse chimeras.

[2] = molecular target: T2, muCDH19(44-362)::huCDH19(365-772) with …
Text: as §1

[3] = molecular target: T3, muCDH19(44-770) with Flag tag …
Text: as §1

[4] = molecular target: T4, muCDH19(44-461)::huCDH19(464-772) with …
Text: as §1

[5] = molecular target: huCDH19(44-772) with Flag tag (construct A, Hu EC1-5) (human, UniProt Q9H159 44-772)
Text: as §1

[6] = molecular target: T5, huCDH19(44-141)::muCDH19(140-770) with Flag tag (construct B, Hu EC1) (human/mouse chimera)
T5 construct: leader left out; the entry starts at residue 44; also called C137897
Text: as §1

[7] = molecular target: T6, muCDH19(44-247)::huCDH19(250-364)::muCDH19(363-770) with Flag tag (construct F, Hu EC3) (human/mouse chimera)
T6 construct: leader left out; the entry starts at residue 44; also called C137911
Text: as §1

[8] = molecular target: T7, muCDH19(44-139)::huCDH19(142-364)::muCDH19(363-770) with Flag tag (construct E, Hu EC2-3) (human/mouse chimera)
T7 construct: leader left out; the entry starts at residue 44; also called C137847
Text: as §1

[9] = molecular target: T8, huCDH19(44-249)::muCDH19(248-770) with Flag tag (construct C, Hu EC1-2) (human/mouse chimera)
T8 construct: leader left out; the entry starts at residue 44; also called C137896
Text: as §1

| binding result [1] | binding result [2] | binding result [3] | binding result [4] | binding result [5] | binding result [6] | binding result [7] | binding result [8] | binding result [9] | Binder |
| --- | --- | --- | --- | --- | --- | --- | --- | --- | --- |
| binds | binds | binds | binds | binds | binds | binds | binds | binds | hu anti-<huCDH19> 2G6 (1-477)(R17G) VH::huIgG1z + 23A10.3 (1-231)(C42S) VL::huLLC-C2 (Ab ID 14304) (antibody, V domains shown, light chain is that of 23A10.3 (C42S); Bin 4) VH: QVQLVESGGGVVQPGGSLRLSCAASGFTFSSYGMHWVRQAPGKGLEWVAFIWYDGSNKYYADSVKDRFTISRDNSKNTLYLQMKSLRAEDTAVYYCARRAGIIGTIGYYYGMDVWGQGTTVTVSS VL: SYELTQPPSVSVSPGQTASITCSGDRLGEKYVSWYQQKPGQSPILVIYQDNKWPSGIPERFSGSNSGNTATLTISGTQAMDEADYYCQAWDSSTVVFGGGTKLTVLG |
| binds | binds | binds | binds | binds | binds | binds | binds | binds | hu anti-<huCDH19> 2G6 (1-477)(R17G,D61E,D72E,K94N) VH::huIgG1z + 2G6 (1-234)(C42S,D110E) VL::huLLC-C1 (Ab ID 14039) (antibody, V domains shown, Engineered variant of 2G6; the entries already carry the changes; Bin 4) VH: QVQLVESGGGVVQPGGSLRLSCAASGFTFSSYGMHWVRQAPGKGLEWVAFIWYEGSNKYYAESVKDRFTISRDNSKNTLYLQMNSLRAEDTAVYYCARRAGIIGTIGYYYGMDVWGQGTTVTVSS VL: SYELTQPPSVSVSPGQTASITCSGDRLGEKYTSWYQQRPGQSPLLVIYQDTKRPSGIPERFSGSNSGNTATLTISGTQAMDEADYYCQAWESSTVVFGGGTKLTVLG |
